In publication PMC11121168:

Test system: CC[C@H](NC(=O)OC(C)(C)C)C(=O)N[C@H](C(=O)N[C@@H](CC(C)C)C(=O)N[C@@H](CCC(N)=O)C(=O)Nc1ccc2c(C)cc(=O)oc2c1)C(C)(C)C
Assay: purified protein, by the assay type
Conditions: pH 7.2; 37.0 °C

C-terminally His-tagged SARS-CoV-2 Mpro (Severe acute respiratory syndrome coronavirus 2)
Km: 85.2 ± 5.6 µM
